From patent US7482016B2, “Immunogenic compositions comprising HIV-1 acetylated Tat polypeptides” (The J. David Gladstone Institutes, priority 2003, dated 2009)

B1: Tat: synthetic unacetylated 72-amino acid Tat, sequence derived from isolate HIV-1BRU (peptide)
chain: MEPVDPRLEPWKHPGSQPKTACTTCYCKKCCFHCQVCFTTKALGISYGRKKRRQRRRPPQGSQTHQVSLSKQ
B2: AcTat: synthetic Tat protein (HIV-1BRU sequence, 72 amino acids) containing a single acetylated lysine at position 50 (peptide)
chain: B1 chain

What was measured:
[1] = tested on: TAR-mutant LTR-luciferase, RSV LTR-luciferase, 5×UAS/Gal4-VP16, CMV-GFP, LTR alone in HeLa cells; assay: Microinjection control experiments with Tat-independent reporters; type: cell-based
Procedure: Microinjection was performed at room temperature with a Zeiss automated injection system (Carl Zeiss, Oberkochen, Germany). Samples were prepared as a 20111 injection mix containing the luciferase reporter constructs (100 ng/ml) and CMV-GFP (50 ng/ml) constructs in sterile water or phosphate buffer. In individual experiments α-AcARM or preimmune immunoglobulins (5 mg/ml), Lys-CoA (8 μM) or synthetic Tat (30 μg/ml) were included in the mix. Four hours after injection, cells were examined on a Zeiss Axiovert microscope to determine the number of GFP-positive cells, washed in cold phosphate buffer and stored at −70° C. for luciferase assays (Promega).
A GFP-expressing construct (CMV-GFP) was coinjected to count the number of injected cells before analysis of luciferase activity.

[2] = tested on: p300-dependent transcription of MyoD RNA; conditions: microinjected into nuclei of oocytes; cited from earlier work
[3] = tested on: Tat transactivation of the HIV LTR in HeLa-Tat cells; assay: Nuclear microinjection of HIV LTR-luciferase reporter, Tat transactivation; type: cell-based; conditions: 8 μM solution microinjected into HeLa-Tat cells, three independent experiments
Procedure: Microinjection experiments were previously described (Dorr et al. (2002), supra). Microinjection was performed at room temperature with a Zeiss automated injection system (Carl Zeiss, Oberkochen, Germany). Samples were prepared as a […] injection mix containing the luciferase reporter constructs (100 ng/ml) and CMV-GFP (50 ng/ml) constructs in sterile water or phosphate buffer. In individual experiments α-AcARM or preimmune immunoglobulins (5 mg/ml), Lys-CoA (8 μM) or synthetic Tat (30 μg/ml) were included in the mix. Four hours after injection, cells were examined on a Zeiss Axiovert microscope to determine the number of GFP-positive cells, washed in cold phosphate buffer and stored at −70° C. for luciferase assays (Promega). The α-p24 monoclonal antibody (183-H12-5C) was used in control microinjections with α-AcARM mAbs and was obtained through the AIDS Research and Reference Reagent Program, NIH (Chesebro et al. (1992) J Virol 66, 6547-6554). […]
FIGS. 3A-D. (FIG. 3A) Microinjection of the p300-HAT inhibitor Lys-CoA (8 μM), HIV LTR-luciferase and CMV-GFP into HeLa or HeLa-Tat cells. Each value is expressed as a percentage of the value obtained in control cells, injected with LTR-luciferase and CMV-GFP alone. […]

[4] = tested on: Jurkat T cells expressing FLAG-tagged Tat from the HIV LTR; assay: Western blot of lysates of Jurkat T cells expressing FLAG-tagged Tat after TSA; type: cell-based; conditions: 400 nM TSA, 16 hours
Procedure: Immunoglobulin G were purified on Gammabind Plus Sepharose (Amersham).
Next, cellular extracts were analyzed with anti-AcARM antibodies. A cell line was generated that constitutively expressed a FLAG-tagged Tat protein from the HIV LTR by transducing Jurkat T cells with a Tat-encoding lentiviral vector (Jordan et al., 2001, supra). Following treatment with trichostatin A (TSA), a specific inhibitor of cellular HDACs, AcTat was detected by western blot analysis with anti-AcARM mAbs in cells expressing Tat, but not in control cells expressing GFP (FIG. 1D). To enhance the signal, immunoprecipitation was performed with anti-FLAG monoclonal antibodies before western blot analysis. Again, AcTat was detected in Tat-expressing, but not in GFP control cells (FIG. 1E). Expression of AcTat was enhanced when cells were treated with TSA.

RNAPII = target: T1, RNAPII (Homo sapiens, UniProt P24928); assay: RNA polymerase II binding in 293 nuclear extracts; conditions: biotinylated proteins
T1 construct: analyzed with modification-specific antibodies directed against the CTD of RNAPII; endogenous in cells; host or cells: 293 nuclear extract
Procedure: Synthetic biotinylated nonacetylated and acetylated Tat proteins were incubated for 2 hours with 50 μl 293 nuclear extracts prepared according to (Dignam et al. (1983) Methods Enzymol. 101, 582-598) in buffer conditions described in (Mavankal et al., (1996) Proc. Natl. Acad. Sci. USA 93, 2089-2094). Complexes were collected with streptavidin-sepharose beads, separated by SDS-PAGE electrophoresis and analyzed with α-RNAPII antibodies (clones H14 and 8WG16; CPR Inc) or with α-AcARM mAbs and HRP-conjugated Streptavidin (Jackson Immunoresearch Laboratories).
(§1) FIGS. 4A-D. (FIG. 4A) Bulge-dependent binding of Tat to TAR. Radiolabeled riboprobes corresponding to the HIV TAR element or a mutated form (TARΔBulge) were incubated with 0, 40, 80 and 160 ng of Tat and analyzed on a 4% Tris-glycine gel. (FIG. 4B) High-affinity binding of AcTat to TAR RNA, but […]. The wild-type TAR probe was incubated with increasing amounts of synthetic Tat or AcTat (0, 1.6 ng, 8 ng, 40 ng, and 200 ng) in the absence or presence of recombinant CyclinT1. The same experiment with a mutated TAR RNA probe containing mutations in the apical loop is shown below (TARΔLoop). (FIG. 4C) Binding of AcTat to CyclinT1 in the absence of TAR. Increasing amounts (0, 0.5 μg, 1 μg, and 2 μg) of Tat or AcTat were incubated with GST-CyclinT1, Tat-binding-deficient GST-CyclinT1 (C261A) or GST alone. Bound proteins were analyzed with monoclonal anti-Tat antibodies, directed against the N-terminus of Tat. 50% of input Tat proteins are shown. (FIG. 4D) Binding of Tat and AcTat to RNAPII. Biotinylated Tat or AcTat proteins (0, 1, 2, 4, 8 μg) were incubated with nuclear extracts, precipitated with streptavidin-sepharose and analyzed with modification-specific antibodies directed against the CTD of RNAPII. AcTat was detected with monoclonal anti-AcARM antibodies. Both Tat proteins reacted with horseradish peroxidase-conjugated streptavidin (SA-HRP).

GST-CyclinT1 [5] = target: T2, GST-CyclinT1 (Homo sapiens, UniProt O60563, C261A); assay: GST binding (pulldown) assay
T2 construct: Full-length GST-CyclinT1, GST-CyclinT1C261A or GST alone were expressed in the BL21 strain of Escherichia coli; made in house; host or cells: Escherichia coli BL21
Procedure: (§2) Full-length GST-CyclinT1, GST-CyclinT1C261A or GST alone were expressed in the BL21 strain of Escherichia coli and purified on glutathione-Sepharose beads (Amersham Pharmacia Biotech) as described (Herrmann and Rice (1993) Virology 197, 601-608). For binding assays ˜1 μg of bead-coupled GST-CyclinT1, GST-CyclinT1C261A or GST alone was incubated with Tat and AcTat in 100 μl modified Buffer C for 3.5 hr at 4°. Buffer C is described in (Fujinaga et al. (1999) Proc. Natl. Acad. Sci. USA 96, 1285-1290) and was used without ZnCl2 and SDS. Beads were washed three times with modified Buffer C containing 1M KCl, boiled in Laemmli buffer and supernatant was analyzed by immunoblotting using monoclonal anti-Tat antibodies (clone AC11.AE12; CPR Inc.).
as §1

GST-CyclinT1 [6] = target: T3, GST-CyclinT1 (Homo sapiens, UniProt O60563); assay: GST binding (pulldown) assay; conditions: absence of TAR
T3 construct: Full-length GST-CyclinT1, GST-CyclinT1C261A or GST alone were expressed in the BL21 strain of Escherichia coli; made in house; host or cells: Escherichia coli BL21
Procedure: as §2, §1

Tat/TAR/CyclinT1 complex = target: T4, Tat/TAR/CyclinT1 complex (Homo sapiens, UniProt O60563); assay: RNA gel shift with recombinant CyclinT1, ternary complex formation; type: binding; conditions: presence of CyclinT1
T4 construct: 160 ng of GST-cleaved CyclinT1 (amino acids 1-303); GST (N, cleaved yes); made in house
Procedure: TAR RNAs were synthesized from HindIII-linearized pGEM3Zf-TAR constructs, which contained an oligonucleotide corresponding to the HIVLAI TAR sequence (nucleotides +17 to +44) ligated into the EcoR1-HindIII cloning sites, downstream of the T7 RNA polymerase start site. In the TARΔbulge construct, thymidine 23 was replaced with an adenosine, and the TARΔloop construct contained C30→A, T31→G, and G33→T mutation. In vitro transcription reactions were performed with the Riboprobe system (Promega, Madison, Wis.) with 1 μg of linearized plasmids and 50 μCi of ^32P-CTP (20 μCi/μl; Amersham Pharmacia Biotech). Transcripts were treated with 2 U DNAse I (Promega), extracted with a phenol:chloroform mixture, and purified over a Nick column (Amersham Pharmacia Biotech). […]
FIGS. 4A-D. (FIG. 4A) Bulge-dependent binding of Tat to TAR. Radiolabeled riboprobes corresponding to the HIV TAR element or a mutated form (TARΔBulge) were incubated with 0, 40, 80 and 160 ng of Tat and analyzed on a 4% Tris-glycine gel. […] Bound proteins were analyzed with monoclonal anti-Tat antibodies, directed against the N-terminus of Tat. […] Biotinylated Tat or AcTat proteins (0, 1, 2, 4, 8 μg) were incubated with nuclear extracts, precipitated with streptavidin-sepharose and analyzed with modification-specific antibodies directed against the CTD of RNAPII. AcTat was detected with monoclonal anti-AcARM antibodies. […]

HIV TAR RNA = assay: RNA gel mobility shift assay; type: binding; conditions: for effect of mutations in the loop of TAR on binding: TARΔLoop probe; for binding to wild-type TAR RNA: absence of CyclinT1; for effect of addition of CyclinT1 on affinity for wild-type TAR RNA: recombinant CyclinT1 present
Procedure: TAR RNAs were synthesized from HindIII-linearized pGEM3Zf-TAR constructs, which contained an oligonucleotide corresponding to the HIVLAI TAR sequence (nucleotides +17 to +44) ligated into the EcoR1-HindIII cloning sites, downstream of the T7 RNA polymerase start site. In the TARΔbulge construct, thymidine 23 was replaced with an adenosine, and the TARΔloop construct contained C30→A, T31→G, and G33→T mutation. In vitro transcription reactions were performed with the Riboprobe system (Promega, Madison, Wis.) with 1 μg of linearized plasmids and 50 μCi of ^32P-CTP (20 μCi/μl; Amersham Pharmacia Biotech). Transcripts were treated with 2 U DNAse I (Promega), extracted with a phenol:chloroform mixture, and purified over a Nick column (Amersham Pharmacia Biotech). Gel mobility reactions (final volume, 16 μl) were carried out at 30° C. as described (Wei et al. (1998) Cell 92, 451-462) with 2×10^4 cpm TAR probes/reaction with indicated concentrations of Tat proteins and 160 ng of GST-cleaved CyclinT1 (amino acids 1-303) (Garber et al. (1998) Curr Opin Immunol 11, 460-465). RNA-binding complexes were separated on a pre-run 4% Tris-glycine gel.
as §1

T2 sequence (O60563 whole entry C261A): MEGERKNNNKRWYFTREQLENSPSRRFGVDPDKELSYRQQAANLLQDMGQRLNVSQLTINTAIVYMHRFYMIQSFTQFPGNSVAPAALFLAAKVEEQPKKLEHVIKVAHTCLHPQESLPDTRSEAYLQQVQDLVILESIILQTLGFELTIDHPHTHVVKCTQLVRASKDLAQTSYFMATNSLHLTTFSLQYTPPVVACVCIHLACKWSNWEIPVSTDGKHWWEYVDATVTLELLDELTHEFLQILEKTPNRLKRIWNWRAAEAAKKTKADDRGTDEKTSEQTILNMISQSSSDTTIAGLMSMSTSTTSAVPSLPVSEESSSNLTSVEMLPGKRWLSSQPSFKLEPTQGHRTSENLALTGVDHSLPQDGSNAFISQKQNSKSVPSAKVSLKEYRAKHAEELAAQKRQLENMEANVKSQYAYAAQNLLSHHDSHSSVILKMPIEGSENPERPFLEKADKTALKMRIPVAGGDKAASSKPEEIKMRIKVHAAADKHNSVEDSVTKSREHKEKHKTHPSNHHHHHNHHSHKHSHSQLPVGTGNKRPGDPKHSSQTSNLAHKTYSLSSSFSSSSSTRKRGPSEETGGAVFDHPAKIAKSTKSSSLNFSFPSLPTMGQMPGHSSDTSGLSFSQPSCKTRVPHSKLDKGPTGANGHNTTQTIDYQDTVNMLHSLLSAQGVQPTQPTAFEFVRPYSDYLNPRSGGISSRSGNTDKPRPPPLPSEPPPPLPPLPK
T4 sequence (O60563 1-303, one chain of several): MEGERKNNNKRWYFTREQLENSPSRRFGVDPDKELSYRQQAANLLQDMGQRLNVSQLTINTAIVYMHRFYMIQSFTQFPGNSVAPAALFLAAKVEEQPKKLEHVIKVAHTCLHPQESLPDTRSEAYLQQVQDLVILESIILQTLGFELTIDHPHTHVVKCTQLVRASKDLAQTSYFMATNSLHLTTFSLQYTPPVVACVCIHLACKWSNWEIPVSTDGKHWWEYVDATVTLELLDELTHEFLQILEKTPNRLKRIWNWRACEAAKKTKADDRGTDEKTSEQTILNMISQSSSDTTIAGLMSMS
T3 sequence (O60563 whole entry): as the sequence (O60563 whole entry C261A) above, with A261C counted along it

| Molecule | effect on the LTR alone ([1]; coinjected into HeLa cells (no Tat)) | effect on coinjected CMV-GFP reporter ([1]; same concentration (8 μM)) | p300-dependent transcription of MyoD RNA [2] | inhibition of Tat activity on the HIV LTR [3] | Tat expression (anti-FLAG immunodetection) [4] | expression of AcTat ([4]; anti-FLAG immunoprecipitation, anti-AcARM blot) | binding to nonphosphorylated RNAPII (RNAPII) | binding to mutant CyclinT1 (C261A) or GST alone (GST-CyclinT1 [5]) | binding to wild-type GST-CyclinT1 (GST-CyclinT1 [6]) | formation of the Tat/TAR/CyclinT1 ternary complex (Tat/TAR/CyclinT1 complex) | binding to bulge-mutant TAR RNA (HIV TAR RNA; TARΔBulge probe) | effect of mutations in the loop of TAR on binding (HIV TAR RNA) | binding to wild-type TAR RNA (HIV TAR RNA) | effect of addition of CyclinT1 on affinity for wild-type TAR RNA (HIV TAR RNA) | interaction with hyperphosphorylated RNAPII complex (RNAPII) | concentration at which retarded bands form, relative to unacetylated Tat (HIV TAR RNA; wild-type TAR probe) |
| --- | --- | --- | --- | --- | --- | --- | --- | --- | --- | --- | --- | --- | --- | --- | --- | --- |
| CC(=O)N[C@@H](CCCCNC(=O)CSCCNC(=O)CCNC(=O)[C@H](O)C(C)(C)COP(=O)(O)OP(=O)(O)OC[C@H]1O[C@@H](n2cnc3c(N)ncnc32)[C@H](O)[C@@H]1OP(=O)(O)O)C(N)=O [Lys-CoA] | no effect | no effect | efficiently blocked | 60-70% |  |  |  |  |  |  |  |  |  |  |  |  |
| CC(/C=C/C(=O)NO)=C\[C@@H](C)C(=O)c1ccc(N(C)C)cc1 [TSA, trichostatin A] |  |  |  |  | overall upregulation | enhanced |  |  |  |  |  |  |  |  |  |  |
| B1 |  |  |  |  |  |  | no binding | Neither Tat nor AcTat bound | equal affinities | formed the expected Tat/TAR/CyclinT1 complex | blocked | little effect | high affinity | did not alter |  |  |
| B2 |  |  |  |  |  |  | no binding | Neither Tat nor AcTat bound | equal affinities | could not |  | little effect | affinities equal to that of unacetylated Tat | did not alter | higher affinity than Tat | one-third |
